# From US20070259402
# Assays:
# [1] = test system: proFIX-Fc (FIX-Fc retaining the FIX propeptide; dimer or monomer form not given)
# [2] = molecular target: precursor (proFIX) of FIX alone produced in the presence of PACE-SOL (BeneFIX®) (UniProt P00740)
# Chain of precursor (proFIX) of FIX alone produced in the presence of PACE-SOL (BeneFIX®) (P00740 whole entry, looked up): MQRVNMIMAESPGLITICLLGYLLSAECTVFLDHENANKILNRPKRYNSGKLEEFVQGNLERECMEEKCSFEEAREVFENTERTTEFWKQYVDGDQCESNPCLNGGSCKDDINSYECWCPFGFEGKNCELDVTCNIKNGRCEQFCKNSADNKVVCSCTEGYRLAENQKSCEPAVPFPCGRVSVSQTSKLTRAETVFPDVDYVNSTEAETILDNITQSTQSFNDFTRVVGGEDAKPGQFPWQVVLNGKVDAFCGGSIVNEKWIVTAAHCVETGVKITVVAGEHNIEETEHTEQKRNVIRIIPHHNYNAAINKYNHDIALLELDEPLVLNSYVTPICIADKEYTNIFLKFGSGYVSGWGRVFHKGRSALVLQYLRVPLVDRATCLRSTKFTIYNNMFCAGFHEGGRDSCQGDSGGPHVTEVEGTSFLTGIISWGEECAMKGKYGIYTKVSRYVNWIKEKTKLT
substance,measurement,setting,value
"PACE-SOL (soluble form of human PACE, amino acids 1-715)","Propeptide Processing (Western blotting), CHO, transient transfection",[1],processes
same,"peptide mapping (tryptic digest, LC/MS) for the propeptide indicator peptide (PIP)",[2],"FIX alone produced in the presence of PACE-SOL (BeneFIX®) appeared identical to FIX-Fc monomer produced with PC5 (FIG. 13), displaying no detectable PIP"
